The target in the test is human recombinant NEK2 protein (Abcam, ab42599), RED-NHS labelled (human) (UniProt P51955). In words: MST.

B1: SPTLC1 protein tested in the MST assay (enzyme)
chain: MATATEQWVLVEMVQALYEAPAYHLILEGILILWIIRLLFSKTYKLQERSDLTVKEKEELIEEWQPEPLVPPVPKDHPALNYNIVSGPPSHKTVVNGKECINFASFNFLGLLDNPRVKAAALASLKKYGVGTCGPRGFYGTFDVHLDLEDRLAKFMKTEEAIIYSYGFATIASAIPAYSKRGDIVFVDRAACFAIQKGLQASRSDIKLFKHNDMADLERLLKEQEIEDQKNPRKARVTRRFIVVEGLYMNTGTICPLPELVKLKYKYKARIFLEESLSFGVLGEHGRGVTEHYGINIDDIDLISANMENALASIGGFCCGRSFVIDHQRLSGQGYCFSASLPPLLAAAAIEALNIMEENPGIFAVLKEKCGQIHKALQGISGLKVVGESLSPAFHLQLEESTGSREQDVRLLQEIVDQCMNRSIALTQARYLEKEEKCLPPPSIRVVVTVEQTEEELERAASTIKEVAQAVLL
Broadly, the Kd is the equilibrium constant for the complex coming apart. B1: the Kd amounted to 350 nM.

Values taken from article PMC12094245.
